Results: paper PMC11320721
pKd: −log10 of the molar value. Each block holds one substance with its values, some of them ahead of it.

Tests used:
[1] = target: PZP domain of JADE1 (JADE1PZP), wild type (human) (UniProt Q6IE81); experiment: other fluorescence titration
[2] = target: Nucleosome core particle with 207 bp DNA (NCP207) (human) (UniProt P04908); experiment: fluorescence polarisation
[3] = target: Nucleosome core particle with 147 bp 601 DNA (NCP147) (human) (UniProt P04908); experiment: fluorescence polarisation

Sequence of PZP domain of JADE1 (JADE1PZP), wild type (human) (Q6IE81 201-373): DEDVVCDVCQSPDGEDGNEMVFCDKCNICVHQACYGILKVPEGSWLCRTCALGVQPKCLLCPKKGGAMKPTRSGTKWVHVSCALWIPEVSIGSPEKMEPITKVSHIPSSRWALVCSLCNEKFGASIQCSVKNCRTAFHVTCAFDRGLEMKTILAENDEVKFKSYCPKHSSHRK
Sequence of PZP domain of JADE1 (JADE1PZP), wild type (Q6IE81 201-373): as above

- Kd of the first site (two-site binding model) [1]: 0.3 µM
- Kd of the second site (two-site binding model) [1]: 25 µM
Substance: H3_(1–31) peptide (residues 1–31 of H3) (from UniProt P68431 2-32)

- pKd [1]: 4.20
Substance: H3_(15–34) peptide (residues 15–34 of H3) (from UniProt P68431 16-35)

- fold decrease in binding against wild type JADE1PZP [2]: 55 fold
Substance: K331A/R334A/K367A (KRK) mutant of JADE1PZP (from UniProt Q6IE81 201-373) (domain or fragment)

- S1/2 [3]: 2.8 µM
- S1/2 [2]: 0.5 µM
Substance: PZP domain of JADE1 (JADE1PZP), wild type (from UniProt Q6IE81 201-373) (domain or fragment)
